Results from patent US20100041597A1, “PEPTIDES TARGETED TO PROTEIN KINASE C ISOFORMS AND USES THEREOF” (priority 2005, published 2010).
Several values for one entry are separate records, joined by “and”; a condition that tells them apart may be missing. Identical values can stand only once. Blank lines part the entries; values can stand above or below the substance they belong to.

Experiments:
[1] = target: PKC-βI (endogenous, human cell extracts) (human) (UniProt P05771); assay: Western blot Protocol B, IMR-32 extract, no peptide
[2] = target: PKC-ε (endogenous, human cell extracts) (human) (UniProt Q02156); assay: Western blot Protocol B, IMR-32 extract, Band 2, no peptide
[3] = target: PKC-ε (endogenous, human cell extracts) (human) (UniProt Q02156); assay: Western blot Protocol B, IMR-32 extract, Band 1, no peptide
[4] = target: PKC-βII (endogenous, human cell extracts) (human) (UniProt P05771); assay: Western blot Protocol B, IMR-32 extract, no peptide
Chain of PKC-βII (endogenous, human cell extracts) (human) (P05771 other isoform, or with tags, fused parts or gaps limits assumed): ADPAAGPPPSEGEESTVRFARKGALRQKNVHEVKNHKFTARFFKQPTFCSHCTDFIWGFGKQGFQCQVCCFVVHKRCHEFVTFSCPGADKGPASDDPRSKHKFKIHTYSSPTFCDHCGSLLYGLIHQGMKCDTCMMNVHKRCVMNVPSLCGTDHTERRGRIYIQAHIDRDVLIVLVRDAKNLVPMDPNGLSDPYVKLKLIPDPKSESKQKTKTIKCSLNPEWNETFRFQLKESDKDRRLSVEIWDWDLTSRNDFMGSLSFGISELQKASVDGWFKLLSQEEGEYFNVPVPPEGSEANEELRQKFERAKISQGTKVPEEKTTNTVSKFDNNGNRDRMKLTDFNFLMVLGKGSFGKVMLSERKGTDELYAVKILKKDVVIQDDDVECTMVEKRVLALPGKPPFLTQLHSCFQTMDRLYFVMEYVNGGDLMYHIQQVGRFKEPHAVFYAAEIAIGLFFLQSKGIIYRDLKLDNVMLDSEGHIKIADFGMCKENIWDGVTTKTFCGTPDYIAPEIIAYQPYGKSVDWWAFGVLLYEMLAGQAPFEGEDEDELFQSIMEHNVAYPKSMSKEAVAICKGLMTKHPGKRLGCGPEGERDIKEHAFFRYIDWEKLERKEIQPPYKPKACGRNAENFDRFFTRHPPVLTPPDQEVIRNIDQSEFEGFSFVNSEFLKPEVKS

Chain of PKC-ε (endogenous, human cell extracts) (human) (Q02156 whole entry): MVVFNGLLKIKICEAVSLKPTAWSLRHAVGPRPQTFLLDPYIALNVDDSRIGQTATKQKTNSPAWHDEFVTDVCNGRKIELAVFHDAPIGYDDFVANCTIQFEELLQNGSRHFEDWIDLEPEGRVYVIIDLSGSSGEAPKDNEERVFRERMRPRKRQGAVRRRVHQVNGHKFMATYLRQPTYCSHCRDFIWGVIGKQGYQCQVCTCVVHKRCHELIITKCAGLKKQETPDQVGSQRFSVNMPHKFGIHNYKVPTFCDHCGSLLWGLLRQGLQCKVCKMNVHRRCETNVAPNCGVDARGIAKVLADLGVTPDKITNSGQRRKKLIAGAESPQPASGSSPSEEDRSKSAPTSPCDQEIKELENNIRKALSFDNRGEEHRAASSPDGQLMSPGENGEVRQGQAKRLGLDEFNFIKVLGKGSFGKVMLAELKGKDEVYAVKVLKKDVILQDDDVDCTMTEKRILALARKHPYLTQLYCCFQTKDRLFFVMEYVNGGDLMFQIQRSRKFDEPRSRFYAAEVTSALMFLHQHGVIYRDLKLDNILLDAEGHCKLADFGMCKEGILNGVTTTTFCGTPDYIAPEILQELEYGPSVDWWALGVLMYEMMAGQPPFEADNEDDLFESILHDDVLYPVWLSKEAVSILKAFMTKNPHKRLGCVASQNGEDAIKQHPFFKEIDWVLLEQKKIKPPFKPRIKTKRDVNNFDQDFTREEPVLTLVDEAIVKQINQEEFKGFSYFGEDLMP
Chain of PKC-βI (endogenous, human cell extracts) (human) (P05771 2-671): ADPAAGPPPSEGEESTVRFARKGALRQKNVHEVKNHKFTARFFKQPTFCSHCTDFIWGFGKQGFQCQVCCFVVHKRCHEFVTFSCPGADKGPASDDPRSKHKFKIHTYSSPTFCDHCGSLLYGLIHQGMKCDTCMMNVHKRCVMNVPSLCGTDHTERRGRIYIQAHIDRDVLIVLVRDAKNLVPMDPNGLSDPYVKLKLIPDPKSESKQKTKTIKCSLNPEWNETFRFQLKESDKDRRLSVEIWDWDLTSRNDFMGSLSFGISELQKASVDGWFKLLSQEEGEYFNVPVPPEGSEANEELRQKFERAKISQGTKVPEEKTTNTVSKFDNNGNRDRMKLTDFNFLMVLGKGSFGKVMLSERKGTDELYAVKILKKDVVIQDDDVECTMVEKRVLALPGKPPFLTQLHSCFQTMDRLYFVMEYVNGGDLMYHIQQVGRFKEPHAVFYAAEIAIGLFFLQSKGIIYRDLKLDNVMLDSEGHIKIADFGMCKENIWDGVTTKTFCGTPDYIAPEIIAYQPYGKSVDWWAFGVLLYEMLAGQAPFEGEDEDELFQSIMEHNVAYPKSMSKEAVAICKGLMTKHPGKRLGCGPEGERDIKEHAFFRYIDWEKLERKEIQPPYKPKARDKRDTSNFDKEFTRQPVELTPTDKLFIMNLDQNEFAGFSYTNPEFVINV

- band intensity [1]: 170
Substance: anti-PKC βI antibody (Cat. No. SC-209, Santa Cruz Biotechnology, Inc.)

- band intensity [2]: 261 and 281 and 286
- band intensity [3]: 421 and 420 and 323
Substance: anti-PKC ε antibody (Cat. No. SC-214, Santa Cruz Biotechnology, Inc.)

- band intensity [4]: 98.6
Substance: anti-PKC βII antibody (Cat. No. SC-210, Santa Cruz Biotechnology, Inc.)
